Test results: patent US20150141617A1, “PRODUCTION AND PURIFICATION OF ACTIVE EUKARYOTIC FORMYLGLYCINEGENERATING ENZYME (FGE) VARIANTS” (Universität Bielefeld, priority 2013, published 2015)

Biological target: T1, PC5a (Mus musculus, UniProt Q04592)
T1 construct: expressed in transfected cells; host or cells: CHO-FD11 Tet-On cells, transient co-transfection with pBI-FGE-HA
T1 sequence (Q04592 117-915 isoform Q04592-2 limits assumed): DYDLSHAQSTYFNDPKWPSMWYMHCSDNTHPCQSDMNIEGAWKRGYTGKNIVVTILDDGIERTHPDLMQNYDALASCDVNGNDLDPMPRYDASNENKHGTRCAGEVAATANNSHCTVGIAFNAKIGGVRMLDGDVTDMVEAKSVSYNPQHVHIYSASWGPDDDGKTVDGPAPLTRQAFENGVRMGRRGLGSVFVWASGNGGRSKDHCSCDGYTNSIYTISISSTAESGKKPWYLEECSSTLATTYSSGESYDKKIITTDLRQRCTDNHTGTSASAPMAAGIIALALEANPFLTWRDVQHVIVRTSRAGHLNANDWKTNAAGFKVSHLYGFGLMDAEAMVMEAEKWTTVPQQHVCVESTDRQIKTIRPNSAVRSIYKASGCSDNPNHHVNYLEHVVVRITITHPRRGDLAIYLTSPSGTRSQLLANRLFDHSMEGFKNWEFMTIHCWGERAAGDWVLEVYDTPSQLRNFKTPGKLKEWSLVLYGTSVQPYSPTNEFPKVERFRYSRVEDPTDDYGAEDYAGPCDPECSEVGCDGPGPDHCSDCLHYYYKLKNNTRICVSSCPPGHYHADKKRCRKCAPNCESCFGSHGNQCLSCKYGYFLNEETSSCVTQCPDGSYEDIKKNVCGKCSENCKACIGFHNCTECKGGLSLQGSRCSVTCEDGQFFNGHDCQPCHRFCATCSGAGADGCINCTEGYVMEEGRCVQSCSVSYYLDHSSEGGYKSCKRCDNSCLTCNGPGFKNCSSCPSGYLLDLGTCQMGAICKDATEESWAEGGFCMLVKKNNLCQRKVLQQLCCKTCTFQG
Experiment: FGE processing in CHO-FD11 Tet-On cells co-expressing PC5a
Format: cell-based, murine
Settings: PC5a coexpression
Text: The resulting constructs were verified by full-length sequencing of the coding region to exclude any PCR prone errors. Plasmids for expression of the PCs encoding human furin (Gene ID 5045), human PACE4 (=PCSK6, Gene ID 5046), murine […] (=Pcsk5, Gene ID 18552) and rat PC7 (=Pcsk7, Gene ID 29606) were kindly provided by Abdel-Majid Khatib (18). Note that the PC cDNAs were encoded as pIRES constructs coding also for enhanced green fluorescence protein (EGFP) such that EGFP expression levels serve as a measure of the expression levels of PCs.
3 μg of pSB-FGE-RGS-His6 vector was used for single transfections of HT1080, HeLa, HEK 293, BHK and CHO cells. Conditioned medium was collected after 24 h and centrifuged (500×g, 5 min) Cells were washed once with PBS, treated with trypsin (Lonza) and pelleted by 250×g to remove the medium. Cell pellets were resuspended in PBS (pH 7.4) containing protease inhibitor (PI) cocktail (Sigma) and lysed by sonication 3×10 s on ice. For co-expression of FGE with one of the PCs in CHO-FD11 Tet-On cells 2 μg of pBI-FGE-HA and 2 μg of the plasmids encoding PCs (see above) were used for transient transfection. In case of transient transfections using pBI-vector constructs the protein expression was induced by replenishing the medium with medium containing 2 μg/mL doxycycline (BD Biosciences) at 5 h post-transfection. […]

processing of FGE: low efficiency
B1: FGE: human wild type full length formylglycine generating enzyme with RYSR furin cleavage motif, SEQ ID NO:2 (protein)
chain: ADEFSQEAGTGAGAGSLAGSCGCGTPQRPGAHGSSAAAHRYSREANAPGPVPGERQLAHSKMVPIPAGVFTMGTDDPQIKQDGEAPARRVTIDAFYMDAYEVSNTEFEKFVNSTGYLTEAEKFGDSFVFEGMLSEQVKTNIQQAVAAAPWWLPVKGANWRHPEGPDSTILHRPDHPVLHVSWNDAVAYCTWAGKRLPTEAEWEYSCRGGLHNRLFPWGNKLQPKGQHYANIWQGEFPVTNTGEDGFQGTAPVDAFPPNGYGLYNIVGNAWEWTSDWWTVHHSVEETLNPKGPPSGKDRVKKGGSYMCHRSYCYRYRCAARSQNTPDSSASNLGFRCAADRLPTMDSGRGSHHHHHHH
modifications: cloned matured acitve full length FGE with 6x His tag on C-terminus
